Numbering of substitutions follows the chain as printed.

Assay [1] deals with T1, NY-ESO-1 peptide on HLA-B*35:03 (human).
T1 peptide: MPFATPMEAEL
The assay can be described thus: killing.

For assay [2], the target named is T2, MAGE-A3 peptide on HLA-A*01:01 (human).
T2 peptide: EVDPIGHLY
The assay can be described thus: multimer staining.

The target of assay [3] is T3, MAGE-A3 peptide on HLA-DRB1*13:02 (human).
T3 peptide: TSYVKVLHHMVKISG
The assay can be described thus: cytokine release.

Assay [4] concerns the target T4, MAGE-A3 peptide on HLA-DRB1*11:01 (human).
T4 peptide: TSYVKVLHHMVKISG
The assay can be described thus: cytokine release.

In assay [5] the target is T5, KRAS Q61H peptide on HLA-A*01:01 (human).
T5 peptide: ILDTAGHEEY
The assay can be described thus: IFNγ ELISPOT; peptide titration (1 µM to 0.1 nM) on HLA-A*01:01-transfected K562; full-length, on cells.

Assay [6] addresses T2, MAGE-A3 peptide on HLA-A*01:01. The assay can be described thus: cytokine release.
Assay [7] deals with T6, NY-ESO-1 peptide on HLA-B*35:03 (human).
T6 peptide: MPFATPMEA
The assay can be described thus: killing.

For assay [8], the target named is T7, NY-ESO-1 peptide on HLA-A*02:01 (human).
T7 peptide: SLLMWITQC
The assay can be described thus: killing.

Assay [9] concerns the target T8, NY-ESO-1 peptide on HLA-C*03:04 (human).
T8 peptide: FATPMEAEL
The assay can be described thus: multimer staining.

Assay [10] concerns the target NY-ESO-1 peptide on HLA-B*40:01 (human). The assay can be described thus: killing.

B1: TCRCD8-NY#99 (TCR, V domains shown)
Valpha: KQEVTQIPAALSVPEGENLVLNCSFTDSAIYNLQWFRQDPGKGLTSLLLIQSSQREQTSGRLNASLDKSSGRSTLYIAASQPGDSATYLCAPNDYKLSFGAGTTVTVRA
Vbeta: KAGVTQTPRYLIKTRGQQVTLSCSPISGHRSVSWYQQTPGQGLQFLFEYFSETQRNKGNFPGRFSGRQFSNSRSEMNVSTLELGDSALYLCASSFSSDNEQFFGPGTRLTVL
For the molecule B1, in assay [1], the binding result is given as “recognises”.

B2: TCRCD8-MA3#7 (TCR, V domains shown)
Valpha: ELKVEQNPLFLSMQEGKNYTIYCNYSTTSDRLYWYRQDPGKSLESLFVLLSNGAVKQEGRLMASLDTKARLSTLHITAAVHDLSATYFCAEPNTDKLIFGTGTRLQVFP
Vbeta: DAMVIQNPRYQVTQFGKPVTLSCSQTLNHNVMYWYQQKSSQAPKLLFHYYDKDFNNEADTPDNFQSRRPNTSFCFLDIRSPGLGDTAMYLCATNYDRGYEQYFGPGTRLTVT
In the case of B2, in assay [2], the binding result is listed as “recognises”.

B3: TCRCD8-MA3#8 (TCR, V domains shown)
Valpha: QKEVEQNSGPLSVPEGAIASLNCTYSDRGSQSFFWYRQYSGKSPELIMFIYSNGDKEDGRFTAQLNKASQYVSLLIRDSQPSDSATYLCAVWATGNQFYFGTGTSLTVIP
Vbeta: B2 Vbeta with N94S, Y95F
Consider B3, for which, in assay [2], the binding result is on record as “recognises”.

B4: TCRCD8-NY#102 (TCR, V domains shown)
Valpha: AQSVAQPEDQVNVAEGNPLTVKCTYSVSGNPYLFWYVQYPNRGLQFLLKYITGDNLVKGSYGFEAEFNKSQTSFHLKKPSALVSDSALYFCAVRDIEVVNAGNMLTFGGGTRLMVKP
Vbeta: ETGVTQSPTHLIKTRGQQVTLRCSSQSGHNTVSWYQQALGQGPQFIFQYYREEENGRGNFPPRFSGLQFPNYSSELNVNALELDDSALYLCASTDRVRYEQFFGPGTRLTVL
Turning to B4, the binding result in [1] is given as “recognises”.

B5: TCRCD4-MA3#5 (TCR, V domains shown)
Valpha: AQSVTQLGSHVSVSEGALVLLRCNYSSSVPPYLFWYVQYPNQGLQLLLKYTSAATLVKGINGFEAEFKKSETSFHLTKPSAHMSDAAEYFCAVSDGGATNKLIFGTGTLLAVQP
Vbeta: DGGITQSPKYLFRKEGQNVTLSCEQNLNHDAMYWYRQDPGQGLRLIYYSQIVNDFQKGDIAEGYSVSREKKESFPLTVTSAQKNPTAFYLCASSSGGRASFTQYFGPGTRLTVL
On to B5, for which, in assay [3], the binding result is listed as “recognises”.

B6: TCRCD4-MA3#9 (TCR, V domains shown)
Valpha: GNSVTQMEGPVTLSEEAFLTINCTYTATGYPSLFWYVQYPGEGLQLLLKATKADDKGSNKGFEATYRKETTSFHLEKGSVQVSDSAVYFCALSDPNNQGGKLIFGQGTELSVKP
Vbeta: DTAVSQTPKYLVTQMGNDKSIKCEQNLGHDTMYWYKQDSKKFLKIMFSYNNKELIINETVPNRFSPKSPDKAHLNLHINSLELGDSAVYFCASSQVRGTTEAFFGQGTRLTVV
On to B6, for which the binding result in assay [4] is given as “recognises”.

B7: TCRCD8-EL8-LM7 #4 (TCR, V domains shown)
Valpha: AQKVTQAQTEISVVEKEDVTLDCVYETRDTTYYLFWYKQPPSGELVFLIRRNSFDEQNEISGRYSWNFQKSTSSFNFTITASQVVDSAVYFCALSNAGGTSYGKLTFGQGTILTVHP
Vbeta: EAQVTQNPRYLITVTGKKLTVTCSQNMNHEYMSWYRQDPGLGLRQIYYSMNVEVTDKGDVPEGYKVSRKEKRNFPLILESPSPNQTSLYFCASSRRLPPPYGYTFGSGTRLTVV
Regarding B7, the “minimal recognised peptide concentration” value in assay [5] came out at 10 nM.

B8: TCRCD8-EL8-LM7 #7 (TCR, V domains shown)
Valpha: AQKVTQAQTEISVVEKEDVTLDCVYETRDTTYYLFWYKQPPSGELVFLIRRNSFDEQNEISGRYSWNFQKSTSSFNFTITASQVVDSAVYFCALSESSNTGKLIFGQGTTLQVKP
Vbeta: B7 Vbeta with L97E
Take B8: the “minimal recognised peptide concentration” value in [5] turned out to be 10 nM.

B9: TCRCD8-EL8-LM7 #1 (TCR, V domains shown)
Valpha: AQKITQTQPGMFVQEKEAVTLDCTYDTSDPSYGLFWYKQPSSGEMIFLIYQGSYDQQNATEGRYSLNFQKARKSANLVISASQLGDSAMYFCAMREGQDSSYKLIFGSGTRLLVRP
Vbeta: DSGVTQTPKHLITATGQRVTLRCSPRSGDLSVYWYQQSLDQGLQFLIQYYNGEERAKGNILERFSAQQFPDLHSELNLSSLELGDSALYFCASSVLGPNTEAFFGQGTRLTVV
For B9, the “minimal recognised peptide concentration” value in assay [5] was 10 nM.

B10: TCRCD8-C1-40-MA3 #1 (TCR, V domains shown)
Valpha: GQQLNQSPQSMFIQEGEDVSMNCTSSSIFNTWLWYKQEPGEGPVLLIALYKAGELTSNGRLTAQFGITRKDSFLNISASIPSDVGIYFCAGQLRYGGATNKLIFGTGTLLAVQP
Vbeta: B9 Vbeta with Q48H, L96G, P98A, N99S, T100Y, A102Q, F103Y, Q106P, V113T
Turning to B10, in [6], the binding result is recorded as “recognises”.

B11: TCRCD8-MA3#10 (TCR, V domains shown)
Valpha: RKEVEQDPGPFNVPEGATVAFNCTYSNSASQSFFWYRQDCRKEPKLLMSVYSSGNEDGRFTAQLNRASQYISLLIRDSKLSDSATYLCVVNERNSGYALNFGKGTSLLVTP
Vbeta: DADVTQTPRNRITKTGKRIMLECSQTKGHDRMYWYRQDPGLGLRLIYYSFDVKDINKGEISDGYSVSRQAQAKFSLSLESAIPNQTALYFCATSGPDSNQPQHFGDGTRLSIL
For B11, in assay [2], the binding result is recorded as “recognises”.

B12: TCRCD8-NY#101 (TCR, V domains shown)
Valpha: AQTVTQSQPEMSVQEAETVTLSCTYDTSESDYYLFWYKQPPSRQMILVIRQEAYKQQNATENRFSVNFQKAAKSFSLKISDSQLGDAAMYFCAYRSDAGGTSYGKLTFGQGTILTVHP
Vbeta: ETGVTQSPTHLIKTRGQQVTLRCSSQSGHNTVSWYQQALGQGPQFIFQYYREEENGRGNFPPRFSGLQFPNYSSELNVNALELDDSALYLCASSPRTGGAGNTIYFGEGSWLTVV
In the case of B12, the binding result in [7] is reported as “recognises”.

B13: TCRCD8-NY#100 (TCR, V domains shown)
Valpha: SQQGEEDPQALSIQEGENATMNCSYKTSINNLQWYRQNSGRGLVHLILIRSNEREKHSGRLRVTLDTSKKSSSLLITASRAADTASYFCATDSNDYKLSFGAGTTVTVRA
Vbeta: GAGVSQSPRYKVTKRGQDVALRCDPISGHVSLYWYRQALGQGPEFLTYFNYEAQQDKSGLPNDRFSAERPEGSISTLTIQRTEQRDSAMYRCASSWGGELFFGEGSRLTVL
As to B13, the binding result in [1] is on record as “recognises”.

B14: TCRCD8-EL28-NYE #2 (TCR, V domains shown)
Valpha: SQELEQSPQSLIVQEGKNLTINCTSSKTLYGLYWYKQKYGEGLIFLMMLQKGGEEKSHEKITAKLDEKKQQSSLHITASQPSHAGIYLCGADMLDYQKVTFGIGTKLQVIP
Vbeta: DAGVIQSPRHEVTEMGQEVTLRCKPISGHDYLFWYRQTMMRGLELLIYFNNNVPIDDSGMPEDRFSAKMPNASFSTLKIQPSEPRDSAVYFCASRRGGSEQYFGPGTRLTVT
B14: the binding result in assay [8] was “recognises”.

B15: TCRCD8-53-02-NY #107 (TCR, V domains shown)
Valpha: GQNIDQPTEMTATEGAIVQINCTYQTSGFNGLFWYQQHAGEAPTFLSYNVLDGLEEKGRFSSFLSRSKGYSYLLLKELQMKDSASYLCAVRLGDAGNMLTFGGGTRLMVKP
Vbeta: DSGVTQTPKHLITATGQRVTLRCSPRSGDLSVYWYQQSLDQGLQFLIQYYNGEERAKGNILERFSAQQFPDLHSELNLSSLELGDSALYFCASSVGRGMNTEAFFGQGTRLTVV
For the molecule B15, the binding result in [9] is reported as “recognises”.

B16: TCRCD8-53-02-NY #109 (TCR, V domains shown)
Valpha: GQQVMQIPQYQHVQEGEDFTTYCNSSTTLSNIQWYKQRPGGHPVFLIQLVKSGEVKKQKRLTFQFGEAKKNSSLHITATQTTDVGTYFCADNAGNMLTFGGGTRLMVKP
Vbeta: GAVVSQHPSWVICKSGTSVKIECRSLDFQATTMFWYRQFPKQSLMLMATSNEGSKATYEQGVEKDKFLINHASLTLSTLTVTSAHPEDSSFYICSARDPGRNYGYTFGSGTRLTVV
As to B16, in assay [10], the binding result was “recognises”.

B17: TCRCD8-53-02-NY #110 (TCR, V domains shown)
Valpha: B16 Valpha with A90G
Vbeta: B16 Vbeta with P99E, G100D, N102P
Regarding B17, the binding result in assay [10] is listed as “recognises”.

Source of the values: US20230405046A1 (published 2023).
